Here are results for 1 substance from patent US20120141480A1.

Assay [1] addresses human factor D (purified from human serum) (human) (UniProt P00746). Kind of assay: cell-based or functional assay.
Assay [2] has as its target dog factor D (in dog serum) (dog). Kind of assay: cell-based or functional assay. Particulars: scale: times less effective than on human factor D.

UniProt P00746, sequence (P00746 26-253 N180D): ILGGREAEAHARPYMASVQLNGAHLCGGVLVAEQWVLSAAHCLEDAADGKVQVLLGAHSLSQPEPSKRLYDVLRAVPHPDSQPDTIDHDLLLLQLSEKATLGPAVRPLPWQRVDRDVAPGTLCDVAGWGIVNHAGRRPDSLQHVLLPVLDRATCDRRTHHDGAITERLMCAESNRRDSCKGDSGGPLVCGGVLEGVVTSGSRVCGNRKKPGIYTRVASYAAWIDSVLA

For the substance MAb 166-32 (antibody), in assay [1], the alternative pathway hemolytic activity of plasma from an extracorporeal circuit with human whole blood (molar ratio (MAb:factor D)) was determined as 1.5, the inhibition of factor D dependent hemolysis of unsensitized rabbit RBCs (factor D depleted human serum reconstituted with purified factor D) was 0.3 µg/mL and the molar ratio for inhibition of factor D dependent hemolysis (molar ratio (MAb 166-32 to factor D)) was determined as 0.5. The neutralization of dog factor D in hemolytic assays, against human factor D in assay [2] was over 10.
